# From patent publication US20190150137A1
# Columns and labels:
# [1] = biological target: ClfAD327C/K541C (ClfA(229-545)D327C/K541C, disulfide-stabilized closed conformation) (Staphylococcus aureus strain Newman) (UniProt Q2G015); assay: ITC, peptide titrated into ClfAD327C/K541C; panel assigned by the legend paragraph 25 (bovine Fg γ peptide has the lower affinity)
# [2] = biological target: GST-Fg γ^1-17 (GST fusion protein containing the native human Fg γ 395-411 sequence) (human); assay: ELISA-type assay, ligand coated, apparent Kd
# [3] = biological target: GST-Fg g^1-17D16A (GST fusion of the Fg γ 395-411 sequence with D16A) (human); assay: solid-phase binding assay, wells coated with GST-γ1-17 D16A, anti-His detection, A405
substance,measurement,setting,value
bovine Fg γ peptide (peptide representing the bovine Fg γ chain sequence) (from UniProt P12799 420-436),Kd,[1],20.9 µM
ClfA229-545 (recombinant His-tagged N2N3 segment of Staphylococcus aureus clumping factor A) (from UniProt Q2G015 229-545),Kd,[2],0.222 µM
same,EC50 (read off the curve),[3],0.2 µM
"ClfAD327C/K541C (ClfA(229-545)D327C/K541C, disulfide-stabilized closed conformation) (from UniProt Q2G015 229-545)",Kd,[2],0.02 µM
